Assay results as given in WO2022154037A1 (dated 2022).

What was measured:
[1] = molecular target: T1, antigen peptide in which Ser510 is not phosphorylated (non-phosphorylated LRH1 peptide) (human); experiment: ELISA, concentration series of peptide, purified antibody
T1 construct: also called non-pS510-LRH1 peptide; peptide containing a non-phosphorylated product of serine at position 510
T1 peptide: RLPEIRAISMQAEE

[2] = molecular target: T2, mutant LRH1 (LRH1S510E; constitutive phosphorylated product) (human, UniProt O00482 1-541); experiment: immunohistochemical staining of HEK293T cell block sections expressing LRH1S510E
T2 construct: It is a nuclear protein, not on the cell surface; also called HEK293T:LRH1S510E
T2 sequence (O00482 whole entry S510E): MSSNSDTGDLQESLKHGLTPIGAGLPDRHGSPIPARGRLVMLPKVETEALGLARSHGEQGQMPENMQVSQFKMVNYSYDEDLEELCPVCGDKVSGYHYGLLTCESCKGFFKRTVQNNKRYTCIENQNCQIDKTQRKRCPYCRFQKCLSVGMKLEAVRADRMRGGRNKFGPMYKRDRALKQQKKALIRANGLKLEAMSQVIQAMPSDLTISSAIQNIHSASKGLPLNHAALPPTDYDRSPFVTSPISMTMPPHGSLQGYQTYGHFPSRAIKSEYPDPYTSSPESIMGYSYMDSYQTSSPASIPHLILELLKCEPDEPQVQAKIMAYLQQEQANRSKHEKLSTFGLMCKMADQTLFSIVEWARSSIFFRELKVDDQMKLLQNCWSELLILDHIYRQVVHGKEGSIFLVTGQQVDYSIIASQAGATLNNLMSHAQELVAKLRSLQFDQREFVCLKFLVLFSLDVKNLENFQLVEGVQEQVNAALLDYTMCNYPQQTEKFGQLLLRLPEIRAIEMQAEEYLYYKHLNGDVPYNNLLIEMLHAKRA

binding result [1]: no binding
binding result [2]: binds
B1: anti-pSer510-LRH1 monoclonal antibody clone 55 (FMU-P2-C2) (antibody, V domains shown)
VH: EVKLVESGGGLVQPGGSLRLSCAASGFTFADFYMSWIRQSPGKAPEWLSFIRNKAKSYTTEYNPSVKGRFTISRDDTQNVLYLQMNTLRAEDTAIYYCAKHERGGAGDYWGQGVMVTVSL
VL: DIQMTQSPASLSASPEEIVTITCQASQDIGNWLTWYQQKPGKSPQLLIYSATSLADGIPSRFSGSRSGTQYSLKISRLQVEDTGIYYCLQRYSNPLTFGSGTKLEIK
notes: Rat monoclonal antibody from a hybridoma (Wistar rat iliac lymph node cells fused with mouse myeloma SP2), detected with anti-rat IgG secondary antibodies; also called rat anti-pSer510-LRH1 monoclonal antibody clone 55; purified anti-pSer510-LRH1 monoclonal antibody
